Measured values as given in article PMC10397247.
Values belong to the binder of their own block, whether it stands above or below them.

Experiments:
4H1328-bN = target: T1, 4H1328-bN; assay: two-hybrid library CCNG1;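 also: natural log of median RNA to DNA barcode read ratio; higher means stronger binding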
T1 chain: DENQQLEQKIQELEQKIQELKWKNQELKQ

4H1369-bN = target: T2, 4H1369-bN; assay: two-hybrid library CCNG1;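 also: natural log of median RNA to DNA barcode read ratio; higher means stronger binding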
T2 chain: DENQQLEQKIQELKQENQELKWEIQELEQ

4H1446-bN = target: T3, 4H1446-bN; assay: two-hybrid library CCNG1;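 also: natural log of median RNA to DNA barcode read ratio; higher means stronger binding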
T3 chain: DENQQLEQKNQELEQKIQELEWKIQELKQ

4H1845-bN = target: T4, 4H1845-bN; assay: two-hybrid library CCNG1;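 also: natural log of median RNA to DNA barcode read ratio; higher means stronger binding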
T4 chain: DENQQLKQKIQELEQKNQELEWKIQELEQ

4H2576-bN = target: T5, 4H2576-bN; assay: two-hybrid library CCNG1;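 also: natural log of median RNA to DNA barcode read ratio; higher means stronger binding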
T5 chain: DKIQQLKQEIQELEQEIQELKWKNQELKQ

4H2610-bN = target: T6, 4H2610-bN; assay: two-hybrid library CCNG1;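 also: natural log of median RNA to DNA barcode read ratio; higher means stronger binding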
T6 chain: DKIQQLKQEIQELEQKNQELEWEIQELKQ

4H264-bH = target: T7, 4H264-bH; assay: two-hybrid library CCNG1
T7 chain: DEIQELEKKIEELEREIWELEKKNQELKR

4H2667-bN = target: T8, 4H2667-bN; assay: two-hybrid library CCNG1
T8 chain: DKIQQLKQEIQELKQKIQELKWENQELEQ

4H2697-bN = target: T9, 4H2697-bN; assay: two-hybrid library CCNG1
T9 chain: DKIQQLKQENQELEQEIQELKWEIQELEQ

4H3189-bN = target: T10, 4H3189-bN; assay: two-hybrid library CCNG1
T10 chain: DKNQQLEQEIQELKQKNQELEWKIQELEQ

4H331-bN = target: T11, 4H331-bN; assay: two-hybrid library CCNG1
T11 chain: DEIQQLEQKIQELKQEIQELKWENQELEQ

4H3606-bN = target: T12, 4H3606-bN; assay: two-hybrid library CCNG1
T12 chain: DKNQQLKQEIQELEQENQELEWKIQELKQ

4H370-bN = target: T13, 4H370-bN; assay: two-hybrid library CCNG1
T13 chain: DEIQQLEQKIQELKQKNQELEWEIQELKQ

4H3782-bN = target: T14, 4H3782-bN; assay: two-hybrid library CCNG1
T14 chain: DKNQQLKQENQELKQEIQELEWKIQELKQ

4H3843-bN = target: T15, 4H3843-bN; assay: two-hybrid library CCNG1
T15 chain: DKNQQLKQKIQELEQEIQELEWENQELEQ

4H4001-bN = target: T16, 4H4001-bN; assay: two-hybrid library CCNG1
T16 chain: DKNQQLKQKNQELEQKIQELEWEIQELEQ

4H462-bN = target: T17, 4H462-bN; assay: two-hybrid library CCNG1
T17 chain: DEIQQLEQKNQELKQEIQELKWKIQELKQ

4H568-bN = target: T18, 4H568-bN; assay: two-hybrid library CCNG1
T18 chain: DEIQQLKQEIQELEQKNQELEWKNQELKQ

4H607-bN = target: T19, 4H607-bN; assay: two-hybrid library CCNG1
T19 chain: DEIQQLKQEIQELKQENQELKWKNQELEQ

4H687-bN = target: T20, 4H687-bN; assay: two-hybrid library CCNG1
T20 chain: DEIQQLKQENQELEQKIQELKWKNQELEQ

4H72-bN = target: T21, 4H72-bN; assay: two-hybrid library CCNG1
T21 chain: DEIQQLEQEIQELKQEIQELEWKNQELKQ

4H797-bN = target: T22, 4H797-bN; assay: two-hybrid library CCNG1
T22 chain: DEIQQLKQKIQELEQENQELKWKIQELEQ

4H883-bN = target: T23, 4H883-bN; assay: two-hybrid library CCNG1
T23 chain: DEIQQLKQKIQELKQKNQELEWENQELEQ

4H918-bN = target: T24, 4H918-bN; assay: two-hybrid library CCNG1
T24 chain: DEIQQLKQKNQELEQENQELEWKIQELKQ

4H953-bN = target: T25, 4H953-bN; assay: two-hybrid library CCNG1
T25 chain: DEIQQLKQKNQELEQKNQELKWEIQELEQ

4H967-bN = target: T26, 4H967-bN; assay: two-hybrid library CCNG1
T26 chain: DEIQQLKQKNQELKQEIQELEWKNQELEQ

4H1035-AA = target: T27, 4H1035-AA; assay: two-hybrid library CCmax
T27 chain: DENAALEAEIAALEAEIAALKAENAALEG

4H1064-AA = target: T28, 4H1064-AA; assay: two-hybrid library CCmax; conditions: mean of both orientations
T28 chain: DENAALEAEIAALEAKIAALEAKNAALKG

4H1109-AA = target: T29, 4H1109-AA; assay: two-hybrid library CCmax; conditions: mean of both orientations
T29 chain: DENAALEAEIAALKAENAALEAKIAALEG

4H1146-AA = target: T30, 4H1146-AA; assay: two-hybrid library CCmax; conditions: mean of both orientations
T30 chain: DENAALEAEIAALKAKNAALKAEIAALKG

4H1348-AA = target: T31, 4H1348-AA; assay: two-hybrid library CCmax; conditions: mean of both orientations
T31 chain: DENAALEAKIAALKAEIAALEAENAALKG

4H1391-AA = target: T32, 4H1391-AA; assay: two-hybrid library CCmax; conditions: mean of both orientations
T32 chain: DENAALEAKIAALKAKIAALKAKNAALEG

4H146-AA = target: T33, 4H146-AA; assay: two-hybrid library CCmax
T33 chain: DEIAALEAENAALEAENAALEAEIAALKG

4H1809-AA = target: T34, 4H1809-AA; assay: two-hybrid library CCmax; conditions: mean of both orientations
T34 chain: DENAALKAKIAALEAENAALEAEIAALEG

4H1854-AA = target: T35, 4H1854-AA; assay: two-hybrid library CCmax; conditions: mean of both orientations
T35 chain: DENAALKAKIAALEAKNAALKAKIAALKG

4H189-AA = target: T36, 4H189-AA; assay: two-hybrid library CCmax; conditions: mean of both orientations
T36 chain: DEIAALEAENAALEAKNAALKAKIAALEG

4H2248-AA = target: T37, 4H2248-AA; assay: two-hybrid library CCmax; conditions: mean of both orientations
T37 chain: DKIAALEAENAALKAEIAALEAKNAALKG

4H2283-AA = target: T38, 4H2283-AA; assay: two-hybrid library CCmax; conditions: mean of both orientations
T38 chain: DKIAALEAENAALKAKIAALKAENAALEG

4H2713-AA = target: T39, 4H2713-AA; assay: two-hybrid library CCmax
T39 chain: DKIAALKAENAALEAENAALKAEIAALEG

4H2742-AA = target: T40, 4H2742-AA; assay: two-hybrid library CCmax; conditions: mean of both orientations
T40 chain: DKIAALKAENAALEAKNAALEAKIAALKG

4H2948-AA = target: T41, 4H2948-AA; assay: two-hybrid library CCmax; conditions: mean of both orientations
T41 chain: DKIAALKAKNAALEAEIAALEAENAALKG

4H2991-AA = target: T42, 4H2991-AA; assay: two-hybrid library CCmax; conditions: mean of both orientations
T42 chain: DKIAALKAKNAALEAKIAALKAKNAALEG

4H3029-AA = target: T43, 4H3029-AA; assay: two-hybrid library CCmax; conditions: mean of both orientations
T43 chain: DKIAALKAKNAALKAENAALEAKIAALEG

4H3066-AA = target: T44, 4H3066-AA; assay: two-hybrid library CCmax; conditions: mean of both orientations
T44 chain: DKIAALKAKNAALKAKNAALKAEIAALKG

4H3102-AA = target: T45, 4H3102-AA; assay: two-hybrid library CCmax; conditions: mean of both orientations
T45 chain: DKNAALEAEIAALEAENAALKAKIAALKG

4H3121-AA = target: T46, 4H3121-AA; assay: two-hybrid library CCmax; conditions: mean of both orientations
T46 chain: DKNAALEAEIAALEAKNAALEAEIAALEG

4H3417-AA = target: T47, 4H3417-AA; assay: two-hybrid library CCmax; conditions: mean of both orientations
T47 chain: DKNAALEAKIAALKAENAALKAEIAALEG

4H3446-AA = target: T48, 4H3446-AA; assay: two-hybrid library CCmax; conditions: mean of both orientations
T48 chain: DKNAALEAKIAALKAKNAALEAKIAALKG

4H3591-AA = target: T49, 4H3591-AA; assay: two-hybrid library CCmax; conditions: mean of both orientations
T49 chain: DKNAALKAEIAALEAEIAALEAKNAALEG

4H3628-AA = target: T50, 4H3628-AA; assay: two-hybrid library CCmax; conditions: mean of both orientations
T50 chain: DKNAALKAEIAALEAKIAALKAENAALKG

4H3666-AA = target: T51, 4H3666-AA; assay: two-hybrid library CCmax; conditions: mean of both orientations
T51 chain: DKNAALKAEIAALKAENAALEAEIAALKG

4H3709-AA = target: T52, 4H3709-AA; assay: two-hybrid library CCmax; conditions: mean of both orientations
T52 chain: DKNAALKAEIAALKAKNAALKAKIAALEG

4H391-AA = target: T53, 4H391-AA; assay: two-hybrid library CCmax; conditions: mean of both orientations
T53 chain: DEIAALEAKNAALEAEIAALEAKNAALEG

4H3920-AA = target: T54, 4H3920-AA; assay: two-hybrid library CCmax; conditions: mean of both orientations
T54 chain: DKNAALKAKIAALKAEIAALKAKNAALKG

4H3939-AA = target: T55, 4H3939-AA; assay: two-hybrid library CCmax; conditions: mean of both orientations
T55 chain: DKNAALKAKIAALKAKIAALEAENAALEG

4H428-AA = target: T56, 4H428-AA; assay: two-hybrid library CCmax; conditions: mean of both orientations
T56 chain: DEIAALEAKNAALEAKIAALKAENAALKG

4H478-AA = target: T57, 4H478-AA; assay: two-hybrid library CCmax; conditions: mean of both orientations
T57 chain: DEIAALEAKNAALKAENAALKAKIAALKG

4H497-AA = target: T58, 4H497-AA; assay: two-hybrid library CCmax; conditions: mean of both orientations
T58 chain: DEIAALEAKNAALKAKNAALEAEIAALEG

4H656-AA = target: T59, 4H656-AA; assay: two-hybrid library CCmax; conditions: mean of both orientations
T59 chain: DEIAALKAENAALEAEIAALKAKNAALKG

4H675-AA = target: T60, 4H675-AA; assay: two-hybrid library CCmax; conditions: mean of both orientations
T60 chain: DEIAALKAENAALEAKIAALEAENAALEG

4H971-AA = target: T61, 4H971-AA; assay: two-hybrid library CCmax; conditions: mean of both orientations
T61 chain: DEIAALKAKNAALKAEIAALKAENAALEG

interaction score (4H1328-bN): 0.393
interaction score (4H1369-bN): -0.223
interaction score (4H1446-bN): 0.527
interaction score (4H1845-bN): -1.61
interaction score (4H2576-bN): 1.57
interaction score (4H2610-bN): 0.84
interaction score (4H264-bH): 1.68
interaction score (4H2667-bN): 1.46
interaction score (4H2697-bN): -0.465
interaction score (4H3189-bN): -0.232
interaction score (4H331-bN): 1.8
interaction score (4H3606-bN): -0.42
interaction score (4H370-bN): -0.748
interaction score (4H3782-bN): -1.38
interaction score (4H3843-bN): 1.16
interaction score (4H4001-bN): 1.19
interaction score (4H462-bN): -1.6
interaction score (4H568-bN): -0.31
interaction score (4H607-bN): -0.376
interaction score (4H687-bN): 0.403
interaction score (4H72-bN): 0.764
interaction score (4H797-bN): -0.686
interaction score (4H883-bN): 0.625
interaction score (4H918-bN): -0.287
interaction score (4H953-bN): -0.513
interaction score (4H967-bN): 0.0544
B1: 4H1328-bN (peptide)
chain: DENQQLEQKIQELEQKIQELKWKNQELKQ

interaction score (4H1035-AA): -0.719
interaction score (4H1064-AA): -0.486
interaction score (4H1109-AA): -1.69
interaction score (4H1146-AA): -1.34
interaction score (4H1348-AA): 1.45
interaction score (4H1391-AA): 0.63
interaction score (4H146-AA): -1.39
interaction score (4H1809-AA): -1.83
interaction score (4H1854-AA): -0.616
interaction score (4H189-AA): -1.24
interaction score (4H2248-AA): -1.39
interaction score (4H2283-AA): -1.67
interaction score (4H2713-AA): -1.63
interaction score (4H2742-AA): -1.51
interaction score (4H2948-AA): -1.56
interaction score (4H2991-AA): -1.12
interaction score (4H3029-AA): -2.17
interaction score (4H3066-AA): -0.363
interaction score (4H3102-AA): -1.34
interaction score (4H3121-AA): -1.67
interaction score (4H3417-AA): -1.73
interaction score (4H3446-AA): -1.17
interaction score (4H3591-AA): -1.08
interaction score (4H3628-AA): 1.36
interaction score (4H3666-AA): -1.55
interaction score (4H3709-AA): -0.573
interaction score (4H391-AA): -1.84
interaction score (4H3920-AA): 1.9
interaction score (4H3939-AA): 0.466
interaction score (4H428-AA): -1.35
interaction score (4H478-AA): -1.03
interaction score (4H497-AA): -1.73
interaction score (4H656-AA): -1.67
interaction score (4H675-AA): -2.03
interaction score (4H971-AA): -0.881
B2: 4H1035-AA (peptide)
chain: DENAALEAEIAALEAEIAALKAENAALEG
